6 sequences from the supplement of paper PMC5998384 can be followed below.

The test system of data set [1] is HeLa Kyoto. Put plainly: thermal stability score vs G1/S (z-score of summed log2 fold changes over temperatures); higher = more thermally stable than in G1/S.
Data set [2] deals with HeLa Kyoto. The data set can be described thus: solubility in G1/S (NP-40 vs SDS abundance) (log2 ratio); higher = more soluble. The following applies: cell cycle stage: G1/S.
In data set [3] the test system is HeLa Kyoto. Put plainly: solubility change mitosis vs G1/S (difference of NP-40 vs SDS log2 ratios) (log2 ratio difference); higher = more soluble in mitosis.
Data set [4] deals with HeLa Kyoto. Put plainly: melting temperature (median over replicates), in situ; higher = more thermally stable.
Where [5] appears, read: cell cycle stage: early G1 (4.5 h after nocodazole release).
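Throughout, for melting temperature (median over replicates), in situ: HeLa Kyoto cells synchronized by double thymidine or nocodazole block, proteins quantified by TMT10plex mass spectrometry, three independent biological replicates.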
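Throughout, for solubility change mitosis vs G1/S (difference of NP-40 vs SDS log2 ratios): synchronized HeLa Kyoto cells (double thymidine block for G1/S, nocodazole release for mitosis), protein amounts in NP-40 versus SDS lysates quantified by mass spectrometry, three biological replicates.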
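Throughout, for solubility in G1/S (NP-40 vs SDS abundance): HeLa Kyoto cells arrested at G1/S by double thymidine block, proteins quantified by TMT10plex mass spectrometry in mild NP-40 versus SDS extracts, three biological replicates.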
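Throughout, for thermal stability score vs G1/S (z-score of summed log2 fold changes over temperatures): synchronized HeLa Kyoto cells, proteins quantified by TMT10plex mass spectrometry, three biological replicates, mitosis taken 0.5 h after nocodazole release, G1/S directly after double thymidine block.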

For the sequence “MTAEDSTAAMSSDSAAGSSAKVPEGVAGAPNEAALLALMERTGYSMVQENGQRKYGGPPPGWEGPHPQRGCEVFVGKIPRDVYEDELVPVFEAVGRIYELRLMMDFDGKNRGYAFVMYCHKHEAKRAVRELNNYEIRPGRLLGVCCSVDNCRLFIGGIPKMKKREEILEEIAKVTEGVLDVIVYASAADKMKNRGFAFVEYESHRAAAMARRKLMPGRIQLWGHQIAVDWAEPEIDVDEDVMETVKILYVRNLMIETTEDTIKKSFGQFNPGCVERVKKIRDYAFVHFTSREDAVHAMNNLNGTELEGSCLEVTLAKPVDKEQYSRYQKAARGGGAAEAAQQPSYVYSCDPYTLAYYGYPYNALIGPNRDYFVKAGSIRGRGRGAAGNRAPGPRGSYLGGYSAGRGIYSRYHEGKGKQQEKGYELVPNLEIPTVNPVAIKPGTVAIPAIGAQYSMFPAAPAPKMIEDGKIHTVEHMISPIAVQPDPASAAAAAAAAAAAAAAVIPTVSTPPPFQGRPITPVYTVAPNVQRIPTAGIYGASYVPFAAPATATIATLQKNAAAAAAMYGGYAGYIPQAFPAAAIQVPIPDVYQTY [RBM47]”, the thermal stability score was 0.77 in data set [1] (setting [5]) and 1.83 in data set [1] (cell cycle stage: mitosis). The “solubility in G1/S (log2)” value in data set [2] was -0.0256. Further, in data set [3], the “solubility change mitosis (log2)” value is -0.0191. Further, the melting temperature in data set [4] (cell cycle stage: G1/S) amounted to 48.2 °C; in data set [4] (cell cycle stage: mitosis), 47.4 °C.

For the sequence “MTAEEMKATESGAQSAPLPMEGVDISPKQDEGVLKVIKREGTGTEMPMIGDRVFVHYTGWLLDGTKFDSSLDRKDKFSFDLGKGEVIKAWDIAIATMKVGEVCHITCKPEYAYGSAGSPPKIPPNATLVFEVELFEFKGEDLTEEEDGGIIRRIQTRGEGYAKPNEGAIVEVALEGYYKDKLFDQRELRFEIGEGENLDLPYGLERAIQRMEKGEHSIVYLKPSYAFGSVGKEKFQIPPNAELKYELHLKSFEKAKESWEMNSEEKLEQSTIVKERGTVYFKEGKYKQALLQYKKIVSWLEYESSFSNEEAQKAQALRLASHLNLAMCHLKLQAFSAAIESCNKALELDSNNEKGLFRRGEAHLAVNDFELARADFQKVLQLYPNNKAAKTQLAVCQQRIRRQLAREKKLYANMFERLAEEENKAKAEASSGDHPTDTEMKEEQKSNTAGSQSQVETEA [FKBP4]”, the thermal stability score amounted to 1.07 in data set [1] (setting [5]) and 1.03 in data set [1] (cell cycle stage: mitosis). Further, the “solubility in G1/S (log2)” value in data set [2] amounted to 0.197. Moreover, the “solubility change mitosis (log2)” value in data set [3] is -0.129. For the same sequence, the results for the melting temperature in data set [4] (cell cycle stage: G1/S) and in data set [4] (cell cycle stage: mitosis) were 50 °C and 50.1 °C, respectively.

As for “MTANRDAALSSHRHPGCAQRPRTPTFASSSQRRSAFGFDDGNFPGLGERSHAPGSRLGARRRAKTARGLRGHRQRGAGAGLSRPGSARAPSPPRPGGPENPGGVLSVELPGLLAQLARSFALLLPVYALGYLGLSFSWVLLALALLAWCRRSRGLKALRLCRALALLEDEERVVRLGVRACDLPAWVHFPDTERAEWLNKTVKHMWPFICQFIEKLFRETIEPAVRGANTHLSTFSFTKVDVGQQPLRINGVKVYTENVDKRQIILDLQISFVGNCEIDLEIKRYFCRAGVKSIQIHGTMRVILEPLIGDMPLVGALSIFFLRKPLLEINWTGLTNLLDVPGLNGLSDTIILDIISNYLVLPNRITVPLVSEVQIAQLRFPVPKGVLRIHFIEAQDLQGKDTYLKGLVKGKSDPYGIIRVGNQIFQSRVIKENLSPKWNEVYEALVYEHPGQELEIELFDEDPDKDDFLGSLMIDLIEVEKERLLDEWFTLDEVPKGKLHLRLEWLTLMPNASNLDKVLTDIKADKDQANDGLSSALLILYLDSARNLPSGKKISSNPNPVVQMSVGHKAQESKIRYKTNEPVWEENFTFFIHNPKRQDLEVEVRDEQHQCSLGNLKVPLSQLLTSEDMTVSQRFQLSNSGPNSTIKMKIALRVLHLEKRERPPDHQHSAQVKRPSVSKEGRKTSIKSHMSGSPGPGGSNTAPSTPVIGGSDKPGMEEKAQPPEAGPQGLHDLGRSSSSLLASPGHISVKEPTPSIASDISLPIATQELRQRLRQLENGTTLGQSPLGQIQLTIRHSSQRNKLIVVVHACRNLIAFSEDGSDPYVRMYLLPDKRRSGRRKTHVSKKTLNPVFDQSFDFSVSLPEVQRRTLDVAVKNSGGFLSKDKGLLGKVLVALASEELAKGWTQWYDLTEDGTRPQAMT [ESYT2]”, the values for the thermal stability score in data set [1] (setting [5]) and in data set [1] (cell cycle stage: mitosis) were 0.682 and 0.876, respectively. In data set [2], the “solubility in G1/S (log2)” value is -0.095. Besides, in data set [3], the “solubility change mitosis (log2)” value was -0.0587. In addition, the results for the melting temperature in data set [4] (cell cycle stage: G1/S) and in data set [4] (cell cycle stage: mitosis) were 51.2 °C and 51.5 °C, respectively.

For “MTAVHAGNINFKWDPKSLEIRTLAVERLLEPLVTQVTTLVNTNSKGPSNKKRGRSKKAHVLAASVEQATENFLEKGDKIAKESQFLKEELVAAVEDVRKQGDLMKAAAGEFADDPCSSVKRGNMVRAARALLSAVTRLLILADMADVYKLLVQLKVVEDGILKLRNAGNEQDLGIQYKALKPEVDKLNIMAAKRQQELKDVGHRDQMAAARGILQKNVPILYTASQACLQHPDVAAYKANRDLIYKQLQQAVTGISNAAQATASDDASQHQGGGGGELAYALNNFDKQIIVDPLSFSEERFRPSLEERLESIISGAALMADSSCTRDDRRERIVAECNAVRQALQDLLSEYMGNAGRKERSDALNSAIDKMTKKTRDLRRQLRKAVMDHVSDSFLETNVPLLVLIEAAKNGNEKEVKEYAQVFREHANKLIEVANLACSISNNEEGVKLVRMSASQLEALCPQVINAALALAAKPQSKLAQENMDLFKEQWEKQVRVLTDAVDDITSIDDFLAVSENHILEDVNKCVIALQEKDVDGLDRTAGAIRGRAARVIHVVTSEMDNYEPGVYTEKVLEATKLLSNTVMPRFTEQVEAAVEALSSDPAQPMDENEFIDASRLVYDGIRDIRKAVLMIRTPEELDDSDFETEDFDVRSRTSVQTEDDQLIAGQSARAIMAQLPQEQKAKIAEQVASFQEEKSKLDAEVSKWDDSGNDIIVLAKQMCMIMMEMTDFTRGKGPLKNTSDVISAAKKIAEAGSRMDKLGRTIADHCPDSACKQDLLAYLQRIALYCHQLNICSKVKAEVQNLGGELVVSGVDSAMSLIQAAKNLMNAVVQTVKASYVASTKYQKSQGMASLNLPAVSWKMKAPEKKPLVKREKQDETQTKIKRASQKKHVNPVQALSEFKAMDSI [CTNNA1]”, the values for the thermal stability score in data set [1] (setting [5]) and in data set [1] (cell cycle stage: mitosis) were -0.182 and -0.645, respectively. Further, in data set [2], the “solubility in G1/S (log2)” value came out at 0.402. For the same sequence, in data set [3], the “solubility change mitosis (log2)” value is -0.0404. In addition, the melting temperature was 52.6 °C in data set [4] (cell cycle stage: G1/S) and 52.2 °C in data set [4] (cell cycle stage: mitosis).

On to “MTDDKDVLRDVWFGRIPTCFTLYQDEITEREAEPYYLLLPRVSYLTLVTDKVKKHFQKVMRQEDISEIWFEYEGTPLKWHYPIGLLFDLLASSSALPWNITVHFKSFPEKDLLHCPSKDAIEAHFMSCMKEADALKHKSQVINEMQKKDHKQLWMGLQNDRFDQFWAINRKLMEYPAEENGFRYIPFRIYQTTTERPFIQKLFRPVAADGQLHTLGDLLKEVCPSAIDPEDGEKKNQVMIHGIEPMLETPLQWLSEHLSYPDNFLHISIIPQPTD [ATG5]”, for which the thermal stability score is -0.587 in data set [1] (setting [5]) and 0.0242 in data set [1] (cell cycle stage: mitosis). For the same sequence, in data set [2], the “solubility in G1/S (log2)” value is 0.406. The “solubility change mitosis (log2)” value in data set [3] stood at 0.0407. In addition, the melting temperature in data set [4] (cell cycle stage: G1/S) is 54.2 °C; in data set [4] (cell cycle stage: mitosis) it was 53.6 °C.

For “MTDGDYDYLIKLLALGDSGVGKTTFLYRYTDNKFNPKFITTVGIDFREKRVVYNAQGPNGSSGKAFKVHLQLWDTAGQERFRSLTTAFFRDAMGFLLMFDLTSQQSFLNVRNWMSQLQANAYCENPDIVLIGNKADLPDQREVNERQARELADKYGIPYFETSAATGQNVEKAVETLLDLIMKRMEQCVEKTQIPDTVNGGNSGNLDGEKPPEKKCIC [RAB27B]”, the thermal stability score in data set [1] (setting [5]) was -1.38; in data set [1] (cell cycle stage: mitosis), -2.39. Further, the “solubility in G1/S (log2)” value in data set [2] was determined as 0.00344. Moreover, in data set [3], the “solubility change mitosis (log2)” value was -0.0223. In addition, the melting temperature is 55.7 °C in data set [4] (cell cycle stage: G1/S) and 59.9 °C in data set [4] (cell cycle stage: mitosis).
